Data reported in patent publication US20190169286A1 (Chugai, published 2019).

Assays:
[1] = biological target: T1, soluble cynomolgus monkey FcγRIIIa (His-tagged) (cynomolgus monkey, UniProt Q8SPW2 17-208); assay: SPR (Biacore T200), antibody captured on rProtein L on a CM4 chip, soluble His-tagged FcγR injected, HBS-EP+, 20 °C
T1 construct: also called cynoFcγRIIIa; not shown: His tag
Protocol: (§1) Soluble FcγRIa and FcγRIIIa in both human and cynomolgus monkey were produced in the form of His-tagged molecules by methods known to those of ordinary skill in the art. […] Next, soluble FcγRIa or FcγRIIIa was injected with a running buffer (used as a reference solution), and was made to interact with the antibodies captured onto the sensor chip. HBS-EP+(GE Healthcare) was used as the running buffer, and HBS-EP+ was also used to dilute the soluble FcγRIa or FcγRIIIa. […] All measurements were carried out at 20° C.

[2] = biological target: T2, soluble human FcγRIa (His-tagged) (human, UniProt P12314 16-292, limits assumed); assay: as above
T2 construct: also called hFcγRIa; not shown: His tag
Protocol: as §1

[3] = biological target: T3, soluble human FcγRIIIa (His-tagged) (human, UniProt P08637 17-208); assay: as above
T3 construct: also called hFcγRIIIa; not shown: His tag
Protocol: as §1

human IL-8 [4] = biological target: T4, human IL-8 (human, UniProt P10145 23-99, limits assumed); assay: SPR Biacore T200, Protein A/G capture, IL-8 analyte, pH 5.8, 37C
T4 construct: also called hIL-8; hIL8
Protocol: (§2) An appropriate amount of Protein A/G (PIERCE) was immobilized onto Sensor chip CM4 (GE Healthcare) by the amine coupling method and the antibodies of interest was captured. […] To regenerate the sensor chip, 10 mM glycine-HCl at pH 1.5 was used. All measurements were carried out at 37° C. […] The BIACORE T200 Evaluation Software (GE Healthcare) was used to calculate each parameter.

human IL-8 [5] = biological target: T4, human IL-8; assay: SPR Biacore T200, Protein A/G capture, IL-8 analyte, pH 7.4, 37C
Protocol: as §2

human IL-8 [6] = biological target: T4, human IL-8; assay: as above; remark: listed apart in the source
Protocol: as §2

human IL-8 [7] = biological target: T4, human IL-8; assay: SPR Biacore T200, Protein A/G capture, pH 5.8, 37C;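 on Kd: antibodies captured by Protein A/G amine-coupled onto a CM4 sensor chip, with kinetic parameters derived using Biacore T200 Evaluation Software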
Protocol: (§3) An appropriate amount of Protein A/G (PIERCE) was immobilized onto the Sensor chip CM4 (GE Healthcare) by the amine coupling method and the antibodies of interest were captured. […] To regenerate the sensor chip, 25 mM NaOH and 10 mM glycine-HCl (pH 1.5) were used. […] The BIACORE T200 Evaluation Software (GE Healthcare) was used to calculate each parameter.

human IL-8 [8] = biological target: T4, human IL-8; assay: SPR Biacore T200, Protein A/G capture, pH 5.8, 37C; remark: listed apart in the source;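 on Kd: antibodies captured by Protein A/G amine-coupled onto a CM4 sensor chip, with kinetic parameters derived using Biacore T200 Evaluation Software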
Protocol: as §3

human IL-8 [9] = biological target: T4, human IL-8; assay: SPR Biacore T200, Protein A/G capture, IL-8 analyte, pH 5.8, 37C; remark: listed apart in the source
Protocol: as §2

human IL-8 [10] = biological target: T4, human IL-8; assay: SPR Biacore T200, Protein A/G capture, pH 7.4, 40C;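 on Kd: antibodies captured via Protein A/G, which was amine-coupled to a CM4 sensor chip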
Protocol: as §3

human IL-8 [11] = biological target: T4, human IL-8; assay: SPR IL-8 binding level per 1000 RU captured Ab, pH 7.4, 40C; 1 week 50C in PBS vs initial
human IL-8 [12] = biological target: T4, human IL-8; assay: SPR Biacore T200, Protein A/G capture, pH 7.4, 40C; remark: listed apart in the source;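 on Kd: antibodies captured via Protein A/G, which was amine-coupled to a CM4 sensor chip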
Protocol: as §3

T4 sequence (P10145 23-99 limits assumed): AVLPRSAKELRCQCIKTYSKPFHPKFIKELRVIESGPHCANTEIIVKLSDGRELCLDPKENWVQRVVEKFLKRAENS
T3 sequence (P08637 17-208 limits assumed): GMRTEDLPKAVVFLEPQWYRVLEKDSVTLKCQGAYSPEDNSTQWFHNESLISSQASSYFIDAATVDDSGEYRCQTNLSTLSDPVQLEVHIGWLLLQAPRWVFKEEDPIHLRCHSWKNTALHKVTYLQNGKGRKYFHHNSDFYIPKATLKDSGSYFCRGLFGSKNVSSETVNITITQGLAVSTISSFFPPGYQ
T2 sequence (P12314 16-292 limits assumed): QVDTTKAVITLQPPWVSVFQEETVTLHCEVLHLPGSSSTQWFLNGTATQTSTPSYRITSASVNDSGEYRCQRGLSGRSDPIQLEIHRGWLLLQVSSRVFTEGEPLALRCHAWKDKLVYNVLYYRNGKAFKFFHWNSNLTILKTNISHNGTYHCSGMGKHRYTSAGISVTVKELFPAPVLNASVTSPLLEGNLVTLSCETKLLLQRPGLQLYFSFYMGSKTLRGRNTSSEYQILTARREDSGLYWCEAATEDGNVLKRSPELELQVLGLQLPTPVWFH
T1 sequence (Q8SPW2 17-208 limits assumed): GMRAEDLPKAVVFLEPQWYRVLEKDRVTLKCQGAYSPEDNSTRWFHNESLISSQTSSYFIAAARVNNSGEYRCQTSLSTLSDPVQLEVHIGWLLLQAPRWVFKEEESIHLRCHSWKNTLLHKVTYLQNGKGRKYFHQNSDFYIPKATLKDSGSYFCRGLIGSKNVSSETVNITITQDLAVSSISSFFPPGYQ

B1: H1009/L395-F1974m (H1009-F1974m / L395-k0MT) (antibody)
heavy: QVQLVESGGGLVQPGGSLRLSCAASGFTFSDYYLSWVRQAPGKGLEWVGLIRNKDNYHTPEYSASVKGRFTISRDDSKNSLYLTMSDLKTEDTAVYYCARENHRYDVELAYWGQGTLVTVSSASTKGPSVFPLAPSSKSTSGGTAALGCLVKDYFPEPVTVSWNSGALTSGVHTFPAVLQSSGLYSLSSVVTVPSSSLGTQTYICNVNHKPSNTKVDKKVEPKSCDKTHTCPPCPAPELRRGPSVFLFPPKPKDTLMISRTPEVTCVVVDVSHEDPEVKFNWYVDGVEVHNAKTKPREEQYNSTYRVVSVLTVLHQDWLNGKEYKCKVSNKGLPSSIEKTISKAKGQPREPQVYTLPPSREEMTKNQVSLTCLVKGFYPSDIAVEWESNGQPENNYKTTPPVLDSDGSFFLYSKLTVDKSRWQQGNVFSCSVLHEALHAHTTRKELSLSP
light: DIQMTQSPSSLSASVGDRVTITCRASEIIYSYLAWYQQKPGKAPKLLIYKAKTHADGVPSRFSGSGSGTDFTFTISSLQPEDIATYYCKHHFGFPRTFGQGTKVEIKRTVAAPSVFIFPPSDEQLKSGTASVVCLLNNFYPREAKVQWKVDNALQSGNSQESVTEQDSKDSTYSLSSTLTLSKADYEKHKVYACEVTHQGLSSPVTKSFNRGEC
notes: also called antibody H1009/L395-F1974m
B1: no binding (tested: not given) [1]; no binding (tested: not given) [2]; no binding (tested: not given) [3].

B2: H89/L118 (H89-IgG1 / L118-k0MT) (antibody, V domains shown)
VH: QVQLVESGGGLVQPGGSLRLSCAASGFTFSDYYLSWVRQAPGKGLEWVGLIRNKANGYTREYSASVKGRFTISRDDSKNSLYLQMSSLKTEDTAVYYCARENHRYDVELAYWGQGTLVTVSS
VL: DIQMTQSPSSLSASVGDRVTITCRASEIIYSYLAWYQQKPGKAPKLLIYHAKTHADGVPSRFSGSGSGTDFTFTISSLQPEDIATYYCKHHFGFPRTFGQGTKVEIKR
notes: also called H0089/L0118
B2 gave a koff (human IL-8 [4]) of 0.00384 s⁻¹, a kon (human IL-8 [4]) of 179000 M⁻¹ s⁻¹ and a koff (human IL-8 [5]) of 2.13e-05 s⁻¹. The kon (human IL-8 [5]) was 580000 M⁻¹ s⁻¹, the koff (human IL-8 [6]) was 0.000114 s⁻¹ and the kon (human IL-8 [6]) was 945000 M⁻¹ s⁻¹. The koff (human IL-8 [7]) was 0.0063 s⁻¹, the koff (human IL-8 [8]) was 0.00628 s⁻¹ and the kon (human IL-8 [8]) was 129000 M⁻¹ s⁻¹. The koff (human IL-8 [9]) was 0.0039 s⁻¹, the kon (human IL-8 [9]) was 123000 M⁻¹ s⁻¹ and the koff (human IL-8 [10]) was 0.000129 s⁻¹. For the same binder, the kon (human IL-8 [10]) was 751000 M⁻¹ s⁻¹.

B3: H1009/L395 (H1009-IgG1m / L395-k0MT) (antibody)
heavy: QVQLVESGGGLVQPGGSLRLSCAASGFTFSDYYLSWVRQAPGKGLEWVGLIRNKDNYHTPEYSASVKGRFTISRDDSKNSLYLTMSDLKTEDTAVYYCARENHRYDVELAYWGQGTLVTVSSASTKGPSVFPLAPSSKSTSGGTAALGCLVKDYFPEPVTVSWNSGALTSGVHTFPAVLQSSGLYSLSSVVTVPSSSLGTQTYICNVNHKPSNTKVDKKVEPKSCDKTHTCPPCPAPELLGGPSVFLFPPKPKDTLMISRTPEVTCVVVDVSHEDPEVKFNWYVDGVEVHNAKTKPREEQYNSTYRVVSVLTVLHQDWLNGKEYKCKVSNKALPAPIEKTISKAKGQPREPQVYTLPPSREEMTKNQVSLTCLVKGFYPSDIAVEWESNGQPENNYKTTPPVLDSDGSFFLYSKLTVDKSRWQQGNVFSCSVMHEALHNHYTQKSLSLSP
light: DIQMTQSPSSLSASVGDRVTITCRASEIIYSYLAWYQQKPGKAPKLLIYKAKTHADGVPSRFSGSGSGTDFTFTISSLQPEDIATYYCKHHFGFPRTFGQGTKVEIKRTVAAPSVFIFPPSDEQLKSGTASVVCLLNNFYPREAKVQWKVDNALQSGNSQESVTEQDSKDSTYSLSSTLTLSKADYEKHKVYACEVTHQGLSSPVTKSFNRGEC
notes: also called H1009/L0395
For B3, the “Ratio of IL-8 Binding Amount (Thermal Acceleration/Initial)” value (human IL-8 [11]) was 0.64 and the koff (human IL-8 [7]) was 0.01 s⁻¹.

B4: H1040/L0442 (antibody, human IgG1, kappa, name in Kabat numbering, V domains shown)
VH: QVQLVESGGGLVQPGGSLRLSCAASGFTFSEYYLSWVRQAPGKGLEWVGLIRNKDNHHHPEYSASVKGRFTISRDDSKNSLYLTMSDLKTEDTAVYYCARENHRYDVELAYWGQGTLVTVSS
VL: DIQMTQSPSSLSASVGDRVTITCRASEIIYEYLAWYQQKPGKAPKLLIYKAKTHADGVPSRFSGSGSGTDFTFTISSLQPEDIATYYCKHHFGFPRTFGQGTKVEIKR
notes: L442 = L395 + S31E
With B4 the Kd (human IL-8 [12]) was 0.34 nM, the “Ratio of IL-8 Binding Amount (Thermal Acceleration/Initial)” value (human IL-8 [11]) was 0.49 and the Kd (human IL-8 [7]) was 140 nM. The koff (human IL-8 [7]) was 0.21 s⁻¹.
